Read-outs that look alike come from different tables or passages of the source. Each block holds one substance with its values, some of them ahead of it.
Tests used:
Experiment in all cases: immunoprecipitation and Western blot
[1] = target: amyloid-β (Aβ) in brain tissue of Tg2576 mice (human)
[2] = target: amyloid-β (Aβ) secreted by mature Tg2576 primary cortical neurons (human)
[3] = target: amyloid-β (Aβ) secreted by mature Tg2576 primary cortical neurons (human); remark: listed apart in the source
[4] = target: amyloid-β (Aβ) secreted by 7PA2 cells

stoichiometry N [1]: 2
Substance: amyloid-β (Aβ) in brain tissue of Tg2576 mice (peptide)

stoichiometry N [2]: 3
stoichiometry N [3]: 2
Substance: amyloid-β (Aβ) secreted by mature Tg2576 primary cortical neurons (peptide)

stoichiometry N [4]: 2
Substance: amyloid-β (Aβ) secreted by 7PA2 cells (peptide)
